8 molecules from publication PMC6323846, “Comprehensive investigation of the gene expression system regulated by an Aspergillus oryzae transcription factor XlnR using integrated mining of gSELEX-Seq and microarray data” can be followed below.

Data set [1] deals with T1, MBP-AoXlnR (MBP-XlnR1-183) (Aspergillus oryzae (strain not given for the expression construct; RIB40 used for genomic DNA)) (UniProt Q2UD93).
T1 sequence: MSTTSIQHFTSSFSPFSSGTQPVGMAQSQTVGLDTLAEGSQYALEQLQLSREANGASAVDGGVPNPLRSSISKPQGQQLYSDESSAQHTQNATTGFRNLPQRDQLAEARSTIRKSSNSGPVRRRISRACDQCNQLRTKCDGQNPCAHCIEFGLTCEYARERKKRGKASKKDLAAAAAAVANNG
In words: BLI. The conditions noted are these: BLI (BLItz, streptavidin sensors), Kinetics Buffer 10x (Pall-ForteBio; composition and pH not stated), room temperature, DNA immobilized, 1:1 global fit. On the technique in general: Biolayer interferometry detects binding as a change in optical thickness at a sensor tip.

Data set [2] concerns the target T2, MBP-AoXlnR (MBP-XlnR1-183) (Aspergillus oryzae (strain  …, UniProt Q2UD93 1-183)).
T2 sequence: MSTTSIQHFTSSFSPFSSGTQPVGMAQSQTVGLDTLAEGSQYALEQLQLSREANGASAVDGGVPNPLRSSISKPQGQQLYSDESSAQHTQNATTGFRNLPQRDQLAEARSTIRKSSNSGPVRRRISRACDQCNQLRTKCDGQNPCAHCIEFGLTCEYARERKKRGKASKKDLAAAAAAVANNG
In words: BLI; BLI (BLItz, streptavidin sensors), Kinetics Buffer 10x (Pall-ForteBio; composition and pH not stated), room temperature, DNA immobilized, 1:1 global fit. To be noted: protein: recombinant; label: 5' biotin on bio-polyA strand (complement of strand 1, S14 extended); blunt.

For orientation: Kd means the constant that tells how readily two partners part at equilibrium.

On to “CCAGCCAACCTTCAGCTCAGCAATGCATGCCTTTTTCCCTTTTACCCATTTACCCAGGAATAATGGCATCCTCAGGGTTTCAGCATCTGCT (double strand) [xynF1_upstream_1]”, for which the Kd in data set [1] turned out to be 311 nM.

As to “GGAATTCGGGGTATTAGGCTAAACGTGGCTATCATGGTGAAACAGGCTGAAGAACAGTTCCTGGCAGGTCAAATGGGAATCTAGAGC (double strand) [XRE-WT]”, the Kd in data set [1] came to 656 nM.

XRE-WT: the Kd in data set [1] came out at 656 nM.

B1: egl-617 (dsDNA)
DNA 1: GCAGCGGCGAAAGGTGCAGGATGGCTGACGCTCAGTTTAATGAGCAGTGGCCTTTTTTTTTTTTTTTTTT
DNA 2: AAAAAAAAAAAAAAAAAAGGCCACTGCTCATTAAACTGAGCGTCAGCCATCCTGCACCTTTCGCCGCTGC
With B1, the Kd in data set [2] is 48.4 nM.

B2: egl-242 (dsDNA)
DNA 1: GGAGACTCCTCTCATCTTGCTGGGCTGAAGACTCGGTCAATACCATGATACCTTTTTTTTTTTTTTTTTT
DNA 2: AAAAAAAAAAAAAAAAAAGGTATCATGGTATTGACCGAGTCTTCAGCCCAGCAAGATGAGAGGAGTCTCC
In the case of B2, in data set [2], the Kd turned out to be 40.6 nM.

B3: egl-363 (dsDNA)
DNA 1: CAACCCGAGGGTCGATCGACTCCGGCATTAGCTGCCCAGCAGGTATACAGCCTTTTTTTTTTTTTTTTTT
DNA 2: AAAAAAAAAAAAAAAAAAGGCTGTATACCTGCTGGGCAGCTAATGCCGGAGTCGATCGACCCTCGGGTTG
In the case of B3, the equilibrium dissociation constant (Kd) in data set [2] was found to be 68.7 nM.

B4: abf-687 (abf-680 in Table S1) (dsDNA)
DNA 1: GCAGAAGCTCTTGCAGATCTGTCGGCTGAAGGTTTGTTTTAGGCCAAATGCCTTTTTTTTTTTTTTTTTT
DNA 2: AAAAAAAAAAAAAAAAAAGGCATTTGGCCTAAAACAAACCTTCAGCCGACAGATCTGCAAGAGCTTCTGC
Regarding B4, in data set [2], the Kd was 133 nM.

B5: abf-830 (abf-837 in Table S1) (dsDNA)
DNA 1: TTAAACACATGAGACACACTCGCGGCTGAATGGTTTCGGGTTTTAGCCGGCCTTTTTTTTTTTTTTTTTT
DNA 2: AAAAAAAAAAAAAAAAAAGGCCGGCTAAAACCCGAAACCATTCAGCCGCGAGTGTGTCTCATGTGTTTAA
Turning to B5, in data set [2], the Kd is 144 nM.
